Ends that are not written are not given here. * marks the point of attachment. FITC = O=C1OC2(c3ccc(O)cc3Oc3cc(O)ccc32)c2ccc(NC(=S)*)cc21
Experiments:
Assay in all cases: fluorescence polarisation
[1] = biological target: MBP-TbtD
[2] = biological target: TbtF
[3] = biological target: MBP-TbtD; remark: listed apart in the source
[4] = biological target: maltose-binding protein (MBP) tagged TbtB

IC50 [1] [µM] | IC50 [2] [µM] | Kd [3] [µM] | Kd [4] [µM] | Binder
1.06 ± 0.06 | 0.63 ± 0.06 |  |  | MDLNDLPMDVFELADSGVAAESLTAGHGMTEVGASCNCFCYICCSCSSA [TbtA V(−15)A]
1.51 ± 0.09 | > 10 |  |  | MDLNDLPMDVAELADSGVAVESLTAGHGMTEVGASCNCFCYICCSCSSA [TbtA F(−24)A]
7.28 ± 0.77 | 0.94 ± 0.2 |  |  | MDLNALPMDVFELADSGVAVESLTAGHGMTEVGASCNCFCYICCSCSSA [TbtA D(−30)A]
4.47 ± 0.96 | 1.37 ± 0.15 |  |  | MDLNDLPMDVFELADSGVAVASLTAGHGMTEVGASCNCFCYICCSCSSA [TbtA E(−14)A]
0.7 ± 0.02 | 0.53 ± 0.03 |  |  | MDLNDLPMDVFELADSGVAVESLTAGHGMTAVGASCNCFCYICCSCSSA [TbtA E(−4)A]
4.13 ± 1.62 | 1.45 ± 0.46 |  |  | MDLNDLPMDVFELAASGVAVESLTAGHGMTEVGASCNCFCYICCSCSSA [TbtA D(−20)A]
3.29 ± 0.68 | 0.7 ± 0.04 |  |  | MDLNDLPMDVFELADSGVAVESATAGHGMTEVGASCNCFCYICCSCSSA [TbtA L(−12)A]
0.69 ± 0.04 | 0.49 ± 0.05 |  |  | MDLNDLPMDVFELADSGAAVESLTAGHGMTEVGASCNCFCYICCSCSSA [TbtA V(−17)A]
0.45 ± 0.02 | 0.51 ± 0.06 |  |  | MDLNDLPMDVFELADSGVAVESLAAGHGMTEVGASCNCFCYICCSCSSA [TbtA T(−11)A]
> 10 | > 10 |  |  | MDLNDAPMDVFELADSGVAVESLTAGHGMTEVGASCNCFCYICCSCSSA [TbtA L(−29)A]
3.68 ± 0.31 | 0.98 ± 0.06 |  |  | MDLNDLPMDVFELADSGVAVESLTAGAGMTEVGASCNCFCYICCSCSSA [TbtA H(−8)A]
2.25 ± 0.2 | 0.62 ± 0.04 |  |  | MDLNDLPMDAFELADSGVAVESLTAGHGMTEVGASCNCFCYICCSCSSA [TbtA V(−25)A]
1.35 ± 0.14 | 0.58 ± 0.05 |  |  | MDLNDLPMDVFELADSGVAVESLTAGHGMTEAGASCNCFCYICCSCSSA [TbtA V(−3)A]

More lines, now with the values behind:

Binder | IC50 [1] [µM] | IC50 [2] [µM] | Kd [3] [µM] | Kd [4] [µM]
MDANDLPMDVFELADSGVAVESLTAGHGMTEVGASCNCFCYICCSCSSA [TbtA L(−32)A] | 1.71 ± 0.47 | 1.58 ± 0.36 |  | 
MDLNDLPMAVFELADSGVAVESLTAGHGMTEVGASCNCFCYICCSCSSA [TbtA D(−26)A] | 6 ± 0.41 | 8.23 ± 1.45 |  | 
MDLNDLPMDVFALADSGVAVESLTAGHGMTEVGASCNCFCYICCSCSSA [TbtA E(−23)A] | 3.46 ± 0.57 | 1.27 ± 0.15 |  | 
MDLNDLPMDVFELADAGVAVESLTAGHGMTEVGASCNCFCYICCSCSSA [TbtA S(−19)A] | 0.91 ± 0.11 | 1.57 ± 0.46 |  | 
MALNDLPMDVFELADSGVAVESLTAGHGMTEVGASCNCFCYICCSCSSA [TbtA D(−33)A] | 0.72 ± 0.07 | 0.99 ± 0.22 |  | 
MDLNDLPMDVFELADSGVAVESLTAGHGATEVGASCNCFCYICCSCSSA [TbtA M(−6)A] | 0.49 ± 0.07 | 0.45 ± 0.03 |  | 
MDLNDLPMDVFELADSGVAVEALTAGHGMTEVGASCNCFCYICCSCSSA [TbtA S(−13)A] | 2.76 ± 0.18 | 1.41 ± 0.07 |  | 
MDLNDLPMDVFELADSGVAVESLTAGHGMTEVGASCNCFCYICCSCSSA [TbtA wild-type] | 0.61 ± 0.03 | 0.67 ± 0.03 |  | 
MDLADLPMDVFELADSGVAVESLTAGHGMTEVGASCNCFCYICCSCSSA [TbtA N(−31)A] | 1.13 ± 0.08 | 0.57 ± 0.07 |  | 
{FITC}-MDLNDLPMDVFELADSGVAVESLTAGHGMTEVGA [synthetic TbtA leader peptide derivatized with fluorescein isothiocyanate (FITC) at the N-terminus] |  |  | ~0.14 | ~20

Source: publication PMC5148741 (Journal of the American Chemical Society, 2016)
